# Measurements from patent US20250367128A1, “BIODEGRADABLE LIPIDOIDS AND COMPOSITIONS AND METHODS OF USE THEREOF FOR LIVER TARGETED DELIVERY” (The Trustees of the University of Pennsylvania, priority 2022, published 2025).
# Strand notation (5' to 3'): a small letter for the sugar, then the base; units joined by * are phosphorothioate-linked, units joined directly phosphodiester-linked; [ ] holds rarer units or linkages, { } end groups; capitals alone tell only the bases. [PACE] = phosphonoacetate internucleotide linkage; m = 2'-O-methyl; r = 2'-OH (RNA)
# B1: sgR1: SpCas9 gRNA targeting hPCSK9 exon 7, SEQ ID NO: 1 (nucleic acid)
# guide: mG*mA*mC*rCrArArCrUrUrUrGrGrCrCrGrCrUrGrUrGrGrUrUrUrUrArGrAmGmCmUmAmGmAmAmAmUmAmGmCrArArGrUrUrArArArArUrArArGrGrCrUrArGrUrCrCrGrUrUrArUrCrAmAmCmUmUmGmAmAmAmAmAmGmUmGmGmCmAmCmCmGmAmGmUmCmGmGmUmGmCmU[PACE]mU[PACE]mU[PACE]mU
# System: hPCSK9 exon 7
# Test: In vitro validation of SpCas9 gRNA (plasmid transfection of cell line)
# Format: cell-based, human
# Conditions: data not shown
# Text: In this study, we perform pre-clinical gene editing studies using a PCSK9-hE7 mouse line having a humanized Pcsk9 gene. […] This allows for studies to use renucleic acids which can be directly translated to NHP or human. PCSK9 gene is a “safe harbor” for insertion of a gene therapy mini-gene. Previously, the SpCas9 gRNAs targeting hPCSK9 exon 7 was validated in vitro (plasmid transfection of cell line) with sgR1 yielded 32% indel formation (data not shown).
molecule,measurement,value
B1,indel formation,32%
